Results published in patent US20240270866A1 (Alector, published 2024).
Numbering of substitutions follows the chain as printed.

T1: mouse SIRPA overexpressed on CHO cells (mouse, UniProt P97797 32-513)
T1 construct: also called CHO-muSIRPA
T1 sequence: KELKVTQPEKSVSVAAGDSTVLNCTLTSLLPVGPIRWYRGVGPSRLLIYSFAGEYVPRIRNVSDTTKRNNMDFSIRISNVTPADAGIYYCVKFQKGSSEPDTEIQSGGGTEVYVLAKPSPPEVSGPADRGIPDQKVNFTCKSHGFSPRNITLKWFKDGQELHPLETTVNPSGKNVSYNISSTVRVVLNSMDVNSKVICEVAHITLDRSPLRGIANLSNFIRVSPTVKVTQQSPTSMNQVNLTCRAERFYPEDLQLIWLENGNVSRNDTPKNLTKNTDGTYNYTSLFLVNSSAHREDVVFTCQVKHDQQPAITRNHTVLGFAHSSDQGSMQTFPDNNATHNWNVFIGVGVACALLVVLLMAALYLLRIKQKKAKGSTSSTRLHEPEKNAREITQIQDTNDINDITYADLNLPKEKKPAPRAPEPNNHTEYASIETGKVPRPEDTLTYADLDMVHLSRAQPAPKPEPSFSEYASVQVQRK

T2: Mouse SIRPA D1 Fc (mouse, UniProt P97797 32-150, limits assumed)
T2 sequence: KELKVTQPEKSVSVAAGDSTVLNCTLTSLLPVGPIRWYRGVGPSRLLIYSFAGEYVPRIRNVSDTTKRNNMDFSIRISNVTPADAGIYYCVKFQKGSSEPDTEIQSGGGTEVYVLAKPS

B1: SA-32 (antibody, V domains shown)
VH: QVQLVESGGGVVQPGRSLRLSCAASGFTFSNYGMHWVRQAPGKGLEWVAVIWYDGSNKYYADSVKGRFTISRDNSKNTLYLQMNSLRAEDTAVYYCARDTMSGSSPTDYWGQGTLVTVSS
VL: EIVMTQSPATLSVSPGERATLSCRASQSVGSNLAWYQQKPGQAPRLLIYGASTRATGIPARFSGSGSGTEFTLTISSLQSEDFAVYYCQQLNVFPWTFGGGTKVEIK
notes: IgG
B2: SA-28 (antibody, V domains shown)
VH: QVQLQESGPGLVKPSQTLSLTCTVSGGSISSGGYYWSWIRQHPGKGLEWIGNIYYSGSTYYNPSLKSRVTISVDTSKNQFSLKLSSVTAADTAVYYCARDSDTSWGGFDYWGQGTLVTVSS
VL: EIVLTQSPGTLSLSPGERATLSCRASQSVRSSYLAWYQQKPGQAPRLLIYGASSRATGIPDRFSGSGSGTDFTLTISRLEPEDFAVYYCQQAGVSPYTFGGGTKVEIK
notes: IgG
B3: SA-29 (antibody, V domains shown)
VH: B2 VH
VL: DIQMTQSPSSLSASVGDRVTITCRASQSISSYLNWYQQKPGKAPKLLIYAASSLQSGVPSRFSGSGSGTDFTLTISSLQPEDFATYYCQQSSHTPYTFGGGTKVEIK
notes: IgG
B4: SA-34 (antibody, V domains shown)
VH: QVQLVQSGAEVKKPGASVKVSCKASGYTFTNYGISWVRQAPGQGLEWMGWISAYNGNTNYAQKLQGRVTMTTDTSTSTAYMELRSLRSDDTAVYYCARDVYSSYSYWGQGTLVTVSS
VL: DIQLTQSPSTLSASVGDRVTITCRASQSISSWLAWYQQKPGKAPKLLIYDASSLESGVPSRFSGSGSGTEFTLTISSLQPDDFATYYCQQYELLPPTFGGGTKVEIK
notes: IgG
B5: SA-35 (antibody, V domains shown)
VH: QVQLVQSGAEVKKPGASVKVSCKASGYTFTSYYMHWVRQAPGQGLEWMGIINPSGGSTSYAQKFQGRVTMTRDTSTSTVYMELSSLRSEDTAVYYCAREAGYDIKGFDYWGQGTLVTVSS
VL: B4 VL with L4M, D50K, E92G, L93S, L94F, P96L
notes: IgG
B6: SA-26 (antibody, V domains shown)
VH: QVQLQQWGAGLLKPSETLSLTCAVYGGSFSGYYWSWIRQPPGKGLEWIGEIDHSGSTNYNPSLKSRVTISVDTSKNQFSLKLSSVTAADTAVYYCARDRLDGSLGIYGMDVWGQGTTVTVSS
VL: DIQMTQSPSSLSASVGDRVTITCRASQSINSYLNWYQQKPGKAPKLLIYAASSLQSGVPSRFSGSGSGTDFTLTISSLQPEDFATYYCQQSPSDPWTFGGGTKVEIK
notes: IgG
B7: SA-25 (antibody, V domains shown)
VH: QVQLVQSGAEVKKPGSSVKVSCKASGGTFSSYAISWVRQAPGQGLEWMGSIIPIFGTANYAQKFQGRVTITADESTSTAYMELSSLRSEDTAVYYCARDRGYPRYSYLDLWGRGTLVTVSS
VL: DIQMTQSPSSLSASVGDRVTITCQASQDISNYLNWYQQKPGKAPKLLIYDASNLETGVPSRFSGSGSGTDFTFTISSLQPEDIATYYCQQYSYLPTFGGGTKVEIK
notes: IgG
B8: SA-31 (antibody, V domains shown)
VH: B7 VH
VL: B2 VL with R30S, A92F, G93F, V94S, S95Y, Y97P
notes: IgG
B9: SA-22 (antibody, V domains shown)
VH: EVQLVESGGGLVKPGGSLRLSCAASGFTFSSYSMNWVRQAPGKGLEWVSSISSSSSYIYYADSVKGRFTISRDNAKNSLYLQMNSLRAEDTAVYYCARDPTDSSSYYDVWGQGTLVTVSS
VL: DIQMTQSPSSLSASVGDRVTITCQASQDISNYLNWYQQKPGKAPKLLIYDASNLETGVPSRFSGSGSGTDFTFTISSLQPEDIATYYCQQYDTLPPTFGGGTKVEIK
notes: IgG
B10: SA-16 (antibody, V domains shown)
VH: QVQLQQWGAGLLKPSETLSLTCAVYGGSFSGYYWSWIRQPPGKGLEWIGEIDHSGSTNYNPSLKSRVTISVDTSKNQFSLKLSSVTAADTAVYYCARDLGPPGPHLDVWGQGTMVTVSS
VL: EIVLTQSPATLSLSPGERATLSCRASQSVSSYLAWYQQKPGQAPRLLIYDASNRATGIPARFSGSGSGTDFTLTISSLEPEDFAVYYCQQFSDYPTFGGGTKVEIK
notes: IgG
B11: SA-27 (antibody, V domains shown)
VH: QLQLQESGPGLVKPSETLSLTCTVSGGSISSSSYYWGWIRQPPGKGLEWIGSIYYSGSTYYNPSLKSRVTISVDTSKNQFSLKLSSVTAADTAVYYCARDSDKVALDLWGRGTLVTVSS
VL: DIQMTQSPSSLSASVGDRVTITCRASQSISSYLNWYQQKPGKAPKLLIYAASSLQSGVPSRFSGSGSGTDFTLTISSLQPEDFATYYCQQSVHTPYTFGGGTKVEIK
notes: IgG
B12: SA-14 (antibody, V domains shown)
VH: EVQLVESGGGLVKPGGSLRLSCAASGFTFSSYSMNWVRQAPGKGLEWVSSISSSSSYIYYADSVKGRFTISRDNAKNSLYLQMNSLRAEDTAVYYCARDGSMYYGDPMDVWGQGTTVTVSS
VL: DIQLTQSPSSLSASVGDRVTITCQASQDISNFLNWYQQKPGKAPKLLIYDASNLETGVPSRFSGSGSGTDFTFTISSLQPEDIAKYYCQQFINFPLTFGGGTKVEIK
notes: IgG
B13: SA-12 (antibody, V domains shown)
VH: QVQLVQSGAEVKKPGASVKVSCKASGYTFTSYYIHWVRQAPGQGLEWMGIINPSGGSTSYAQKFQGRVTMTRDTSTSTVYMELSSLRSEDTAVYYCARAPGSWFYWGQGTLVTVSS
VL: EIVLTQSPATLSLSPGERATLSCRASQSVSSYLAWYQQKPGQAPRLLIYDASNRATGIPARFSGSGSGTDFTLTISSLEPEDFAVYYCQQRTNFPITFGGGTKVEIK
notes: IgG
B14: SA-36 (antibody, V domains shown)
VH: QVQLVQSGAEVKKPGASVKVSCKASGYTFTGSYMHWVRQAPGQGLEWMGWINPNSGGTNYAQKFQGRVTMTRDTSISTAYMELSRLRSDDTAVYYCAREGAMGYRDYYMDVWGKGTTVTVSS
VL: B13 VL with L21I, S22T, R24Q, S28D, V29I, N93H, F94Y, I96W
notes: IgG
B15: SA-23 (antibody, V domains shown)
VH: QVQLVQSGAEVKKPGASVKVSCKASGYTFTSYGISWVRQAPGQGLEWMGWISTYNGNTNYAQKLQGRVTMTTDTSTSTAYMELRSLRSDDTAVYYCARDQGTGTTVDLDLWGRGTLVTVSS
VL: not shown
notes: IgG

The binders below were run against T1, mouse SIRPA overexpressed on CHO cells (assay: flow, CHO-muSIRPA;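 as to relative MFI: antibody binding measured by flow cytometry: cells stained with 1 ug/ml test antibody for 1 h on ice, detected with PE-labelled secondary antibody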).

binding result | Binder
no binding (tested: 1 ug/ml) | B1
no binding (tested: 1 ug/ml) | B2
no binding (tested: 1 ug/ml) | B3
no binding (tested: 1 ug/ml) | B4
no binding (tested: 1 ug/ml) | B5
no binding (tested: 1 ug/ml) | B6
no binding (tested: 1 ug/ml) | B7
no binding (tested: 1 ug/ml) | B8
no binding (tested: 1 ug/ml) | B9
no binding (tested: 1 ug/ml) | B10
no binding (tested: 1 ug/ml) | B11
no binding (tested: 1 ug/ml) | B12
no binding (tested: 1 ug/ml) | B13
no binding (tested: 1 ug/ml) | B14

The binders below were run against T3, Human SIRPA D1 Fc (human, UniProt P78324 32-137) (assay: ForteBio IgG avid;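 also: antibody IgG captured on AHQ biosensors, then 100 nM Fc-fused SIRP antigen applied for 3 min, followed by 3 min buffer dissociation, kinetics fitted to a 1:1 model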).
T3 construct: not shown: human IgG1 Fc

Kd | Binder
24.4 nM | B1
6.67 nM | B2
4.55 nM | B3
26.8 nM | B4
10.2 nM | B5
38 nM | B15
13.8 nM | B6
24.2 nM | B7
6.47 nM | B8
22 nM | B9
4.02 nM | B10
4.43 nM | B11
31 nM | B12
13 nM | B13
8.67 nM | B14

Each binder was assayed against T2, Mouse SIRPA D1 Fc (assay: ForteBio IgG avid;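 also: antibody IgG captured on AHQ biosensors, then 100 nM Fc-fused SIRP antigen applied for 3 min, followed by 3 min buffer dissociation, kinetics fitted to a 1:1 model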).

binding result | Binder
no binding (tested: 100 nM) | B1
no binding (tested: 100 nM) | B2
no binding (tested: 100 nM) | B3
no binding (tested: 100 nM) | B4
no binding (tested: 100 nM) | B5
no binding (tested: 100 nM) | B6
no binding (tested: 100 nM) | B7
no binding (tested: 100 nM) | B8
no binding (tested: 100 nM) | B9
no binding (tested: 100 nM) | B10
no binding (tested: 100 nM) | B11
no binding (tested: 100 nM) | B12
no binding (tested: 100 nM) | B13
no binding (tested: 100 nM) | B14

Each binder was assayed against Human SIRPb D1 Fc (human, UniProt O00241 30-148, limits assumed) (assay: ForteBio IgG avid;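 also: antibody IgG captured on AHQ biosensors, then 100 nM Fc-fused SIRP antigen applied for 3 min, followed by 3 min buffer dissociation, kinetics fitted to a 1:1 model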).
Chain of Human SIRPb D1 Fc (O00241 30-148 limits assumed): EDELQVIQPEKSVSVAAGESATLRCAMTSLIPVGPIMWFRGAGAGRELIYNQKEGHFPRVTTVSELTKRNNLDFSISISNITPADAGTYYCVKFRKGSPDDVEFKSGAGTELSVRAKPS

binding result | Binder
no binding (tested: 100 nM) | B1
no binding (tested: 100 nM) | B2
no binding (tested: 100 nM) | B3
no binding (tested: 100 nM) | B4
no binding (tested: 100 nM) | B5
no binding (tested: 100 nM) | B6
no binding (tested: 100 nM) | B7
no binding (tested: 100 nM) | B8
no binding (tested: 100 nM) | B9
no binding (tested: 100 nM) | B10
no binding (tested: 100 nM) | B11
no binding (tested: 100 nM) | B12
no binding (tested: 100 nM) | B13
no binding (tested: 100 nM) | B14

These binders were tested against T4, human SIRPA overexpressed on CHO cells (human, UniProt P78324 31-504) (assay: flow, CHO-huSIRPA;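 also: Anti-SIRPA antibodies applied at 1 µg/mL for 1 h on ice, binding read by flow cytometry using a PE-labelled secondary antibody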).
T4 construct: also called CHO-huSIRPA
Experimental: (§1) Initial characterization of anti-SIRPA antibodies of the present disclosure involved determining their ability to bind cell lines overexpressing human or mouse SIRPA. Cells were harvested, plated at 10⁶/ml in a 96 well plate, washed, and incubated in 100 ul PBS containing 1 ug/ml Mab for 1 hour in ice. Cells were then washed twice and incubated in 100 ul PBS containing 5 ug/ml PE-conjugated secondary antibody for 30 minutes in ice. Cells were washed twice in cold PBS and acquired on a BD FACS Canto. Data analysis and calculation of mean fluorescence intensity (MFI) values or % positive cells was performed with FlowJo® (TreeStar) software version 10.0.7.

relative MFI | Binder
35.4 fold over background | B1
0.775 fold over background | B2
0.595 fold over background | B3
0.806 fold over background | B4
48.2 fold over background | B5
21.1 fold over background | B15
1.1 fold over background | B6
8.27 fold over background | B7
12.4 fold over background | B8
1.39 fold over background | B9
0.592 fold over background | B10
0.722 fold over background | B11
24.4 fold over background | B12
52 fold over background | B13
27.9 fold over background | B14

Molecular target: T1, mouse SIRPA overexpressed on CHO cells
Experiment: flow, CHO-muSIRPA
Remark: another data set of the same source
Experimental: as §1

relative MFI | Binder
0.685 fold over background | B1
0.467 fold over background | B2
0.479 fold over background | B3
0.613 fold over background | B4
0.491 fold over background | B5
0.533 fold over background | B15
0.574 fold over background | B6
0.586 fold over background | B7
0.509 fold over background | B8
0.619 fold over background | B9
0.539 fold over background | B10
0.619 fold over background | B11
0.732 fold over background | B12
0.548 fold over background | B13
0.574 fold over background | B14
